Laboratory results from article PMC3137634, “Concurrent Proinflammatory and Apoptotic Activity of a Helicobacter pylori Protein (HP986) Points to Its Role in Chronic Persistence” (PLoS ONE, 2011).

Target: T1, recombinant HP986 (Helicobacter pylori, UniProt O25636 1-237)
T1 construct: HP986 (HP0986), protein of unknown function from the plasticity zone of Helicobacter pylori; PCR product spanning 711 bp cloned at XhoI/HindIII of pRSETA; about 29 kDa; 711 bp would be 237 codons with the stop or without; also called rHP986; HP0986; source: E. coli BL21 (DE3), purified (Ni2+-NTA, size exclusion chromatography)
T1 sequence: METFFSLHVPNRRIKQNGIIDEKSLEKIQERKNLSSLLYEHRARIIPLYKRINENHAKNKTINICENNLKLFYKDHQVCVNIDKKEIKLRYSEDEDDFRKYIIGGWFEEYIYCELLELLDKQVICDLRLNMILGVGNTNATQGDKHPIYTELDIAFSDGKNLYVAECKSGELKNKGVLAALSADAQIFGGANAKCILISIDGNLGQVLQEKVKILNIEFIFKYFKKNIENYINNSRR
Assay: SPR; BIAcore 3000; human TNFR1/Fc amine-coupled to a CM5 chip up to 150 RU; rHP986 at 100, 400, 800 and 1200 nM in PBS, 30 µl/min; 1:1 Langmuir model
Conditions: both partners purified

B1: Human TNFR1/Fc (Fc fusion, UniProt P19438 30-211, looked up)
chain: LVPHLGDREKRDSVCPQGKYIHPQNNSICCTKCHKGTYLYNDCPGPGQDTDCRECESGSFTASENHLRHCLSCSKCRKEMGQVEISSCTVDRDTVCGCRKNQYRHYWSENLFQCFNCSLCLNGTVHLSCQEKQNTVCTCHAGFFLRENECVSCSNCKKSLECTKLCLPQIENVKGTEDSGTT
notes: soluble human TNFR1 (tumor necrosis factor receptor 1) fused to Fc; Commercial TNFR1/Fc chimeras usually hold the extracellular domain joined to human IgG1 Fc at the C-terminus; also called soluble humanTNFR1; hu TNFR1; source: bought: Sigma, USA
- koff: 0.000908 s⁻¹
- kon: 12600 M⁻¹ s⁻¹
